Reference: a protein production outcome set (Wang et al. 2014)

experiment: label from the status in PepcDB records
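Note: failed if final PepcDB status was selected cloned or expressed and not failed if soluble or beyond.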

Q: For “MIVAFENNVVCSDEKVRDYLLAHHADLKEDQDEDALCLVRLHKEEDIDGTDRVDLAGWREISRELYWTGEQMECNYSIIRFSRKTTSLQMSVVLSTCNQLEWLEKVLWGYEAQDTKNFELIIADDGSRKETYDMLQRITPQLSFQVKHVWHEDKGFRKCDILNKGILAAQADYLLFSDGDCIPRKDFVSTHLCLRRKGRFLSGGYHKLSMDLSKDITKDDILSGRCFDLQWMRGKGMPASFKNNKLTATGFKRWALNTFTPTKASWNGHNASGWLSDILAVNGFDERMQYGGQDREFGERLENYGIHGMQIRYSTVCLHLDHARGYKTKDSIQKNRNIRKHTRGAKVQWASLGIVKDELRGQSVKVNSYYDRYTREEEKLTSYKEKGGFYRHIYSLPCRWRRAKYHDKVVRAYQQDTDAPALSNHSGVIVSLTTFPPRISQLHLMLKSILWQTCPPEKIIVWLSEQEFPGRLNDLPEELKRLMAKGIAFRFVSENFRSHKKYHYVFREYPDSKVITVDDDLIYPRNTVERLLSLSYQYPDTVCGNVIRKIHMDGNSFSVYRKWTKVFTMPVNSSLQNVAIGCGGIYYPPHWYGEELFDWKIISEHCPSADDLWLKANELKRRVKVTGGGEFYPRPIELPQTQNNSLQKKNNGKTNLNDKQWKSLNELWKLDELYCINGK”, which protein production is on record?
A: failed

Q: For “MIVIPMAGMSSRFFKAGYTQPKYMLEAHGQTLFEHSVNSFAAYFASTPFLFIVRNVYDTAVFVREKATQLGIKQFYIAELHTETRGQAETVTLGLEELAKQGVDYQGSITVFNIDTFRPNFVFPDISQHSDGYLEVFQGGGDNWSFAKPEHAGSTKVIQTAEKNPISDLCSTGLYHFNRKEDYLEAYREYVARPSQEWERGELYIAPLYNLLIQKGLNIHYHLIARHEVIFCGVPDEYTDFLRQPQPLEHHHHHH”, which protein production is on record?
A: not failed

Q: Which protein production does the source give for “MIVRRTIDKDELKELPKTVFPGRIYVIQSEAETEKAVAYLQSRPVIGIDSETRPSFTKGQSHKVALLQISSEECCFLFRLNMTGLTQPLVDLLENPAVIKVGLSLKDDFMMLHKRAPFTQQSCIELQDYVRQFGIQDKSLQKIYAILFKEKISKSQRLSNWEADVLSDGQKQYAATDAWACLNIYNLLQELKQTGDWEVSPLTATVSPAEEVISNKISD” here?
A: failed

Q: For “MIWNIDYFCNLRCKSCNAWQGKIFFPEDQIDKHLQEMKNNGIKIVSVTGGEPTLNKNVVDIIRKLKENHFFTHIATNGTNPYVLRKLYPYLDAVTISLDSNIPEEHNAYRGLKIFDTVVSNIKEAKSKVKIVTANMLVTNF”, which protein production is on record?
A: failed

Q: Which protein production does the source give for “MIYFCHAPNDRAIAEKIYFSLKQTGLTCWIPSQDIMAGQYYVEAIANAIEKSDIVVFIFSSHSNTSIQVIDELQKASSLNKTIIPFCVDRAMPSEPIEHYLSSPYKVDATIGLPDDNIAKLQNIIKQIYNQSSVHNANDINTVKDTFAPSNPLENNTNIIKDASDNNSQESIQFNGVINSANSQPPQNPNLPPQHQMNPNFNNTVNNMDRNMNYPIKQNVRPNPQVKSSNKIKIPLIIGGSIAGGIILLSILFMLGKNLLFSTLINSHRPSDNPVIGSNIRIDGSKYTEEEIIEFTKNAILELDRLQASREFYDTYAYNAPEYDLMRIQENVFFSLMDLDVVRFEEVAILGKNEKEHGIEYLLKVDFVCYADYEYTENNETVHRKGEALLYNNVVILETPNDGLKYLYMEGIFEDELNARNENLESSYREIAESGDVNTEDTIQTYLPDSTDEDTIMSVKDIVKKNDHKVVAVYVDVPGGQSQGSGFFIKDGVIVTNYHVIEGGKSAKILLSNGNYVDVEGVLYTDSDVDIAVLKLVNEVGIEPVTIGQARDSDKGSIAVAIGSPLGLFNTVSTGIISNFWEANGVNLIQISIPITHGNSGGALFNESGKLIGITSSGIGEANLNFAISSTHIIPICEDIKNIPYNQLNAVPLSSAGGNINSITRQAGSSNSNQSSSSGKSLLSSKYRFVNSDKPISNDATYTSDLQTIYDLALNKYYAKEDLYRDLDYAFDYILDYGTKYYLEYLEYILHETYIKEDVENFNKINESVLEVLNTTGEYIEFTADEIEIIGAGIKNDGTIDGIIVRALFYENSEPYVRSKFYFRANYDAWSYVDGFLYVGEVTEK” here?
A: failed

Q: Which protein production does the source give for “MIYGILSKNLGMPTPTFLVCPDVVKFENVGQIAVVNGMVYLGGSVGIDKSGTLHKGLEEQTRQTFDNIRKCLEYANSGLDYIVSLNIFLSTSLSDSEEARFNELYREVFCVPATRPCRCCVRAQLQEGLLVEVVNVVAAQK” here?
A: not failed

Q: With “MIYLAITTLIWAFSFGLIGNALKGLDPLQIADTRLLLALIAFIPFMKFGNTNGKEKRQLILLGALQYGVMYTCYLSAFRYLPSHLVALFSVLTPLYIVIINDLRQRSFTPWYLVATVLSVFGAAIIKMGNIDSNEIWLGFGLMQVANLAFAFGQVYYRDWKRSRAHITDSSIFGFLYLGAAIFTTIATLLISHQPPIPLNATPTQWFVLVYMGIIASGLCFFLWNKGGTQTSVGVLATFNNAVVPLAMFASLFIFGEAKGGTPEELVRLTIGSLLIVSALLIAKRK” as the sequence, how does the protein production read?
A: failed

Q: For “MIYLFLALLSYACTYCLVGLLIQGQLADVAEGLRHRPDAPTPGEYLREVGPRARQARRQYTLIAGSVLAVLACLIASGFG”, which protein production is on record?
A: failed

Q: With “MIYLHAIDPIAFSLGPVQVHWYGLMYLAAFFSAWALGRSRILRGRLPGVDMDGFSDLLFYGMLGVVLGGRIGYMLFYAFETFLANPLILFKVWEGGMSFHGGLLGVLIACWLWARKHRLHFFDVMDFVAPLVPLGLGFGRLGNFVGGELWGKFTQAGWGVIFPHAPELADRLPAQIQAQYAAGALNQFARHPSQLYEAALEGVVMFVVLWTFSMKPRARYAVSGLFALLYGVFRFIVEFVRVPDAPIGYLAFNWLTMGQILSLPLVAVGLVLLAMSRRAPVLQPVLPVPAGVEAAK” as the sequence, how does the protein production read?
A: failed

Q: With “MIYLLLGAVIITFLLWPRGRALLKGDGWRVGAGAAAIAAFAVAAYATIRGAWGTGIVLGVIGLWSVTEARRRPIVRREVVHPPKPELSLSEARAILGVGPEASLAEVKAAYNRLIQMAHPDKGGTEGLAAQLNAARDRLIKPRGSARVEP” as the sequence, how does the protein production read?
A: failed

Q: With “MIYWLYLAVFFLLSALDAKEIAMQRFDKQNHKIFEILADKVSAKDNVITASGNAILLNYDVYILADKVRYDTKTKEALLEGNIKVYRGEGLLVKTDYVKLSLNEKYEIIFPFYVQDSVSGIWVSADIASGKDQKYKVKNMSTSGCSIDNPIWHVNATSGSFNMQKSHLSMWNPKIYVGDIPVLYLPYIFMSTSNKRTTGFLYPEFGTSNLDGFIYLQPFYLAPKNSWDMTFTPQIRYKRGFGLNFEARYINSKNDRFLFNARYFRNYTQYVKRYDLRNQNIYGFEFLSSSRDTLQKYFHLKSNIDNGHYIDFLYMNDLDYVRFEKVNKRITDATHMSRANYYLQTENNYYGLNIKYFLNLNKINNNRTFQSVPNLQYHKYLNSLYFRNLLYSVDYQFRNTAREIGYGYVQNALNVPVGLQFSLFKKYLSLGLWNDLQLSNVALMQSKNSFVPTIPNESREFGNFVSSNFSMYVNTDLAREYNKLFHTIQLEAIFNIPYYTFKNGLFSQNMYALSAQALNSYTSPLLRDYDYQGRLYDSVWNPSSILPSNASNKTVDLTLTQYLYGLGGQELLYFKISQLINLDDKVSPFRMPLESKIGFSPLTGLNIFGNVFYSFYQNRLEEISVNANYQRKFLSFNLSYFLKNNFSSGINSIVENLRII” as the sequence, how does the protein production read?
A: failed

Q: With “MKAADEPAYLTVGTDVSAKYRGAFCEAKIKTVKRLVKVKVLLKQDNTTQLVQDDQVKGPLRVGAIVETRTSDGSFQEAIISKLTDASWYTVVFDDGDERTLRRTSLCLKGERHFAESETLDQLPLTNPEHFGTPVIAKKTNRGRRSSLPVTEDEKEEESSEEEDEDKRRLNDELLGKVVSVVSATERTEWYPALVISPSCNDDITVKKDQCLVRSFIDSKFYSIARKDIKEVDILNLPESELSTKPGLQKASIFLKTRVVPDNWKMDISEILESSSSDDEDGPAEENDEEKEKEAKKTEEEVPEEELDPEERDNFLQQLYKFMEDRGTPINKPPVLGYKDLNLFKLFRLVYHQGGCDNIDSGAVWKQIYMDLGIPILNSAASYNVKTAYRKYLYGFEEYCRSANIQFRTVHHHEPKVKEEKKDLEESMEEALKLDQEMPLTEVKSEPEENIDSNSESEREEIELKSPRGRRRIARDVNSIKKEIEEEKTEDKLKDNDTENKDVDDDYETAEKKENELLLGRKNTPKQKEKKIKKQEDSDKDSDEEEEKSQEREETESKCDSEGEEDEEDMEPCLTGTKVKVKYGRGKTQKIYEASIKSTEIDDGEVLYLVHYYGWNVRYDEWVKADRIIWPLDKGGPKKKQKKKAKNKEDSEVDEKRDEERQKSKRGRPPLKSTLSSNMPYGLSKTANSEGKSDSCSSDSETEDALEKNLINEELSLKDELEKNENLNDDKLDEENPKISAHILKENDRTQMQPLETLKLEVGENEQIVQIFGNKMEKTEEVKKEAEKSPKGKGRRSKTKDLSLEIIKISSFGQNEAGSEPHIEAHSLELSSLDNKNFSSATEDEIDQCVKEKKLKRKILGQSSPEKKIRIENGMEMTNTVSQERTSDCIGSEGMKNLNFEQHFERENEGMPSLIAESNQCIQQLTSERFDSPAEETVNIPLKEDEDAMPLIGPETLVCHEVDLDDLDEKDKTSIEDVAVESSESNSLVSIPPALPPVVQHNFSVASPLTLSQDESRSVKSESDITIEVDSIAEESQEGLCERESANGFETNVASGTCSIIVQERESREKGQKRPSDGNSGLMAKKQKRTPKRTSAAAKNEKNGTGQSSDSEDLPVLDNSSKCTPVKHLNVSKPQKLARSPARISPHIKDGEKDKHREKHPNSSPRTYKWSFQLNELDNMNSTERISFLQEKLQEIRKYYMSLKSEVATIDRRRKRLKKKDREVSHAGASMSSASSDTGMSPSSSSPPQNVLAVECR” as the sequence, how does the protein production read?
A: not failed

Q: With “MKAALLDQVARVGKALANGRRLQILDLLAQGERAVEAIATATGMNLTTASANLQALKSGGLVEARREGTRQYYRIAGEDVARLFALVQVVADEHLADVAVLEHHHHHH” as the sequence, how does the protein production read?
A: failed

Q: Which protein production does the source give for “MKADDSRFFSFLKDRIGLDVTSVGEAIIERALRQRAKAANCADSDDYWHLLISSPQEQQALIEAVIVPETWFFRYPESFVTLGMLARERIASLAGVRPLRILSLPCSTGEEPYSIAMALFDAGVDARQFKVDAVDISPVSIAKAVHGIYGKNSFRGSDLSYRERFFSAITDGFEVADEIRACVNFQPGNLLDPKLASQVPYDIVFCRNLVIYFDRPTQQRVFQVLKQLTREDGLLFIGPAEGNLLAGIGMRSIGIAQSFAFRHAPAEAAAPAQVQAAAPIAPRPVVEAPARSPAPTPRPAARTSAAFAPLAKPAAAAGNSEVSALLDTIAGLANEGKSAEARAACERYLQQHEPVAQVFYWLGLLSEVEGAVVQAQGFYRKALYLQPQHRESLAQLAALLAAQGDSAGARRLQDRAARGANKQGNH” here?
A: failed

Q: With “MKAFTVHQAKTHLSRLLKAVEEGEEVVILRGKTPVARLVPYRKGKRPLGFVPGKLPESFFEPLPEEELALWEGATS” as the sequence, how does the protein production read?
A: not failed

Q: Which protein production does the source give for “MKAKGNQKTKVNIVTLGCSKNLVDSENLLTQLRGNGIEAEHESKNDNSNVVVINTCGFIDNAKQESIDTILRYIDAKENGLIDKIYVSGCLSQRYKDDMEREMPQVDAFFGSNELPAILKKFRADYKHELVGERLLTTPSHYAYVKIAEGCDRPCSFCAIPVMRGKHVSTPMEDLVKQAKGMAAKGTKELILIAQDLTYYGLDIYKKRNLSDLLKNLSDVEGIDWIRLQYAYPSGFPLDVLDVMAERSNICKYIDMPLQHGSSDMLKLMRRGIDRPKTEDLIKTIRDKVPGIAFRTTMIIGHPGETEKDFDELCSFVEEQRFDRLGAFTYSHEEHTHSYSMEDTIPQEEKEERQATIMSIQEGISAELNEKKIGNTYKVLFDRKEGGYFIGRTEHDSPEVDNEVMVSAKDQYVRIGDFANVKINDAAEFDLFGEIVK” here?
A: failed

Q: Which protein production does the source give for “MKALASRGTRNHLAGEAAENSVLRDYERRGYHLVRRRWRGRCGEIDLIARSGDEVVFVEVKQSRDFARAAESLGARQMKRLHAAAAEFLAEEPDGQLTPMRFDVALVDGTGRLEIVENAFGHG” here?
A: failed
